Test results as given in US20180245121A1.

Key:
[1] = target: FKBP-GDH(155-454AA) (Acinetobacter calcoaceticus) (UniProt P62942); test: cell-based or functional assay
[2] = target: FKBP-GDH(155-454AA) (Acinetobacter calcoaceticus) (UniProt P62942); test: self-reconstitution of split GDH fragments without ligand; method not described (GDH activity assay implied)

Chain of UniProt P62942 (P62942 2-108, tags or fused parts left off): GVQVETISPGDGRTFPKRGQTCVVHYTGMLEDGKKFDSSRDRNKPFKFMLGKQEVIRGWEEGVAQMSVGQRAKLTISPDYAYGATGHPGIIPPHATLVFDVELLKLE

GDH activity; observed rates on rapamycin titration fitted to a quadratic equation [1]: 11 nM
Kd [2]: 50 to 100 nM
Substance: GDH(1-153AA)-FRB (from UniProt P42345 2021-2113)
